Results on one molecule are retold here after patent US20250090876A1 (published 2025).

The target in the test is antigen target. The test can be described thus: BLI.

B1: ESS0102 5A (antibody, V domains shown)
VH: EVQLLESGGGLVQPGGSLRLSCAASGFSFSSYEMNWVRQAPGKGPEWISYISSGGGTIYYADSVRGRFTISRDNSNNTLYLQMNSLRPDDTAIYYCARDRGRKWLQLLFDSWGQGTLVTVSS
VL: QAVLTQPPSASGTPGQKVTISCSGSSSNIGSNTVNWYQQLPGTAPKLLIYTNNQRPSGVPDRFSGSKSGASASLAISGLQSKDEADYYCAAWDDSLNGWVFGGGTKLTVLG
Turning to B1, binding was put at a Kd of 11.6 nM.
